US20250206797A1
Where a chain is given by its changes, count along the chain named.

B1: fusion protein 7 (insulin analog 1 + L2 + IgG2 Fc1) (Fc fusion)
chain: FVNQHLCGEHLVEALYLVCGERGFHYGGGGGGSGGGGGIVEQCCESICSLEQLENYCGPGPQPGPQPGPQPGPQPGPQPGPQPGPQPGPQECPPCPAPPVAGPSVFLFPPKPKDTLMISRTPEVTCVVVDVSHEDPEVQFNWYVDGVEVHNAKTKPREEQFNSTFRVVSVLTVVHQDWLNGKEYKCKVSNKGLPAPIEKTISKTKGQPREPQVYTLPPSREEMTKNQVSLTCLVKGFYPSDIAVEWESNGQPENNYKTTPPMLDSDGSFFLYSKLTVDKSRWQQGNVFSCSVMHEALHNHYTQKSLSLSPG
B2: fusion protein 5 (insulin analog 1 + L2 + IgG2 Fc1) (Fc fusion)
chain: FVNQHLCGEHLVEALYLVCGERGFHYGGGGGGSGGGGGIVEQCCESICSLEQLENYCGGGGGQGGGGQGGGGQGGGGQGGGGQECPPCPAPPVAGPSVFLFPPKPKDTLMISRTPEVTCVVVDVSHEDPEVQFNWYVDGVEVHNAKTKPREEQFNSTFRVVSVLTVVHQDWLNGKEYKCKVSNKGLPAPIEKTISKTKGQPREPQVYTLPPSREEMTKNQVSLTCLVKGFYPSDIAVEWESNGQPENNYKTTPPMLDSDGSFFLYSKLTVDKSRWQQGNVFSCSVMHEALHNHYTQKSLSLSPG
B3: fusion protein 6 (insulin analog 5 + L2 + IgG2 Fc1) (Fc fusion)
chain: FVNQHLCGEHLVEALYLVCGERGFHYGGGGGSGGGGGIVEQCCESICSLEQLENYCGGGGGQGGGGQGGGGQGGGGGECPPCPAPPVAGPSVFLFPPKPKDTLMISRTPEVTCVVVDVSHEDPEVQFNWYVDGVEVHNAKTKPREEQFNSTFRVVSVLTVVHQDWLNGKEYKCKVSNKGLPAPIEKTISKTKGQPREPQVYTLPPSREEMTKNQVSLTCLVKGFYPSDIAVEWESNGQPENNYKTTPPMLDSDGSFFLYSKLTVDKSRWQQGNVFSCSVMHEALHNHYTQKSLSLSPG
B4: fusion protein 8 (insulin analog 1 + L2 + IgG2 Fc1) (Fc fusion)
chain: FVNQHLCGEHLVEALYLVCGERGFHYGGGGGGSGGGGGIVEQCCESICSLEQLENYCGGGGGAGGGGAGGGGAGGGGGECPPCPAPPVAGPSVFLFPPKPKDTLMISRTPEVTCVVVDVSHEDPEVQFNWYVDGVEVHNAKTKPREEQFNSTFRVVSVLTVVHQDWLNGKEYKCKVSNKGLPAPIEKTISKTKGQPREPQVYTLPPSREEMTKNQVSLTCLVKGFYPSDIAVEWESNGQPENNYKTTPPMLDSDGSFFLYSKLTVDKSRWQQGNVFSCSVMHEALHNHYTQKSLSLSPG
B5: fusion protein 2 (insulin analog 2 + L2 + IgG2 Fc1) (Fc fusion)
chain: B4 chain with E9S, E45H, A63Q, A68Q, A73Q
B6: fusion protein 9 (insulin analog 6 + L2 + IgG2 Fc1) (Fc fusion)
chain: B4 chain with G58N, G59H, A63Q, A68Q, A73Q
B7: LY3209590 (Fc fusion)
chain: B4 chain with E9S, Y16E, E45T, I47T, E51D, A63Q, A68Q, A73Q
B8: fusion protein 4 (insulin analog 4 + L2 + IgG2 Fc1) (Fc fusion)
chain: B4 chain with N3K, A63Q, A68Q, A73Q
B9: fusion protein 3 (insulin analog 3 + L2 + IgG2 Fc1) (Fc fusion)
chain: B4 chain with E9S, Y16H, E45T, G58N, A63Q, A68Q, A73Q
B10: fusion protein 1 (insulin analog 1 + L2 + IgG2 Fc1) (Fc fusion)
chain: B4 chain with A63Q, A68Q, A73Q

Biological target: Type B human insulin receptor (hIR-B) (human), P06213
Assay: cell-based or functional assay

Activity of human insulin receptor subtype B (EC50), autophosphorylation in CHO-K1-hIRB cells (HTRF phospho-Y1150/1151)	Binder
0.275 µM	B1
0.182 µM	B2
0.329 µM	B3
0.326 µM	B4
0.00268 µM	B5
0.12 µM	B6
0.116 µM	B7
0.288 µM	B8
0.00457 µM	B9
0.422 µM	B10
